Laboratory results taken from the domain aggregation screens of Martell et al. (2025).

Test: soluble fraction after stress (log2 fold change); higher = more stays soluble; pooled small domains, quantitative proteomics
Conditions: stress: pH 4
Summary of the method: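 High-throughput quantitative proteomics was run on pooled custom libraries of small protein domains following pH 4 stress. Fold changes are on a log2 scale; higher values mean more of a domain remained soluble. The fold change in soluble amount is taken as a measure of aggregation propensity.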

| Sequence | soluble fraction (log2) |
| --- | --- |
| HMYRPQQEFTMRDLFQNNLNGSESASVRRDALGAELGIGYGNAKRFLERLNHYGVSREEFTAALEKLESE | -0.205 |
| HMYRSGGYTGAGKDDEEAGVVHRNEFVNTADAVRNPHVKRFLDVFNVAQKDGTIRMLNTSQILERARLDA | 0.0596 |
| HMYRYGETPMVVVPDLIGRTVSDIYEEMNADFRLEKFGNGNTVISQAPKPGERVEQGSVIRVYLSGQDQ | -0.206 |
| HMYSDERLQTFMELLPFFVEELSNKHVTRYNVWQNYREAYPNGYGRSQFFFHLGQNLEAKKK | -0.0353 |
| HMYSIKEFSFEVTTPGQRLDLFLSEELIGQTRSSIQNLILKKYVTVNGQVSKASYKVKTGEFISVKIPV | 0.22 |
| HMYSINKTEFGERIKSAREELKMTQTQLAQLLKTSQTTVAKYEHGEQIPRADVLATISKATGKSTDWLLFG | 0.11 |
| HMYSKQRELIMEAVFKNRVHPTAEYVYKLLKKDHPELSLGTVYRNLNYWAENNMLKKINVPGGSDRFDGT | 0.236 |
| HMYSLGPKERSIVSFIANRPGSRSGQIAKSLQIPLPTIKRILNGLVENKVIARHGIGAGTNYVVEDQA | 0.0323 |
| HMYSMSAPMPGVILEIKVAPGDQVNKGDVVMVLEAMKMKNDLHAARTGTVESIDINSGEQVKYGQVLLRFV | 0.0869 |
| HMYSQIGYGSSGSDVRKLQEILNGKGYNLSVDGQFGAKTKSAVRDYQSKNGLSVDGIVGVNTWGKLT | 0.22 |
| HMYSYNKEEVGKRIKSIRQQKGLTQESFGELFGASKGNVATWEKGISLPNASRLREIADLVSITVEELLYG | 0.00486 |
| HMYTLGEESDGTVRLLELYDIIKNKNEKIFVVDELDRSLHPNLTFNFVKKYLSIENKSQLIVSTH | -1.11 |
| HMYVKKSSFVKKSLNNYEFKITDNTNDLLIFYKGMLPDLFREEQGIVVEGLIDKNNNIVASKV | -0.0152 |
| HMYVSGVPAITSIERVSTPGRRVYAGYTTVPKVIGGMGVSILTTSRGVMTDAEARRQKVGGELLAKV | -0.29 |
| HMYVTGSAIRRLREKRKLTQAQLAAALSVSDKTVSKWETARGLPDITLLEPLARALQVSVPELLSGEEV | -0.0388 |
| HMYVVLYPGMARDEAVQVMNELQSRGIDYYEKNGNIYVPKTDENSLRMELANLGYPKTTNNYD | -0.188 |
| HMYYHQIIGLDVVDENGNTLGKIKEILSPGANDVWVVKRKQKNDLLLPVIDDVIKDVDLAAGKVHVELLEG | -1.38 |
